38 sequences from the supplement of paper PMC7877785 can be followed below.

± gives the uncertainty stated by the source.

This series can be described thus: self-splicing fitness, log relative to wild type (ln ratio); higher = more splicing; Tetrahymena group I intron in knt gene, E. coli kanamycin selection, DiMSum; sequences stand for … in CUCUCU…GGAGGGAAAAGUUAUCAGGCAUGCACCUGGUAGCUAGUCUUUAAACCAAUAGAUUGCAUCGGUUUAAAAGGCAAGACCGUCAAAUUGCGGGAAAGGGGUCAACAGCCGUUCAGUACCAAGUCUCAGGGGAAACUUUGAGAUGGCCUUGCAAAGGGUAUGGUAAUAAGCUGACGGACAUGGUCCUAACCACGCAGCCAAGUCCUAAGUCAACAGAUCUUCUGUUGAUAUGGAUGCAGUUCACAGACUAAAUGUCGGUCGGGGAAGAUGUAUUCUUCUCAUAAGAUAUAGUCGGACCUCUCCUUAAUGGGAGCUAGCGGAUGAAGUGAUGCAACACUGGAGCCGCUGGGAACUAAUUUGUAUGCGAAAGUAUAUUGAUUAGUUUUGGAGUACUCGUGGUCG
In short, it runs like this:
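Colonies from six replicate transformations of E. coli BL21(DE3) were pooled and amplicon-sequenced on an Illumina HiSeq 2500. The library placed an intron with all eight P1ex-region nucleotides randomised inside the knt kanamycin-resistance gene on pET-22b(+), and cells grew overnight at 37°C or 30°C on LB agar with or without 25 μg/mL kanamycin (plus 100 μg/mL carbenicillin, 50 μM IPTG, 0.2% rhamnose). Fitness is the DiMSum error-weighted combination of wild-type-normalised replicate fold changes, kanamycin versus none.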

For the sequence CCCAAGCAAUAUUACGAUUC, the “self-splicing fitness (ln)” value is, setting by setting: (30 °C) -3.69 ± 0.25; (37 °C) -2.1 ± 0.26.

Consider CCCAAGCAAUAUUACGCACU, for which the “self-splicing fitness (ln)” value (30 °C) was -3.57 ± 0.19 and the “self-splicing fitness (ln)” value (37 °C) is -2.72 ± 0.25.

Turning to CCCAAGCAAUAUUACGCAGU, the “self-splicing fitness (ln)” value by setting is: (30 °C) -3.15 ± 0.14; (37 °C) -2.32 ± 0.18.

With CCCAAGCAAUAUUACGCAUA, the “self-splicing fitness (ln)” value by setting is: (30 °C) -3.47 ± 0.19; (37 °C) -2.49 ± 0.17.

Consider CCCAAGCAAUAUUACGCCAG, for which the “self-splicing fitness (ln)” value (30 °C) is -2.9 ± 0.19 and the “self-splicing fitness (ln)” value (37 °C) was -3.07 ± 0.33.

As for CCCAAGCAAUAUUACGCCUA, the “self-splicing fitness (ln)” value (30 °C) is -2.65 ± 0.26 and the “self-splicing fitness (ln)” value (37 °C) is -2.8 ± 0.31.

With CCCAAGCAAUAUUACGCGCG, the “self-splicing fitness (ln)” value is -3.78 ± 0.23 (30 °C) and -2.24 ± 0.21 (37 °C).

Take CCCAAGCAAUAUUACGCUCG: the “self-splicing fitness (ln)” value reads like this: (30 °C) -3.17 ± 0.2; (37 °C) -2.14 ± 0.33.

Consider CCCAAGCAAUAUUACGGCAC, for which the “self-splicing fitness (ln)” value was -4.31 ± 0.36 (30 °C) and -2.5 ± 0.21 (37 °C).

On to CCCAAGCAAUAUUACGGCAG, for which the “self-splicing fitness (ln)” value reads like this: (30 °C) -3.73 ± 0.17; (37 °C) -1.65 ± 0.12.

Consider CCCAAGCAAUAUUACGGGCA, for which the “self-splicing fitness (ln)” value (30 °C) was -3.96 ± 0.18 and the “self-splicing fitness (ln)” value (37 °C) is -1.82 ± 0.11.

On to CCCAAGCAAUAUUACGGUUG, for which the “self-splicing fitness (ln)” value (30 °C) was -3.99 ± 0.17 and the “self-splicing fitness (ln)” value (37 °C) is -2.52 ± 0.13.

In the case of CCCAAGCAAUAUUACGUAGC, the “self-splicing fitness (ln)” value is -2.5 ± 0.42 (30 °C) and -2.74 ± 0.39 (37 °C).

As to CCCAAGCAAUAUUACGUCUA, the “self-splicing fitness (ln)” value reads like this: (30 °C) -4.2 ± 0.3; (37 °C) -2.92 ± 0.23.

CCCAAGCAAUAUUACGUCUU: the “self-splicing fitness (ln)” value is -3.41 ± 0.11 (30 °C) and -2.25 ± 0.12 (37 °C).

Turning to CCCAAGCAAUAUUACGUGGG, the “self-splicing fitness (ln)” value runs as follows: (30 °C) -3.29 ± 0.11; (37 °C) -2.82 ± 0.17.

As to CCCCAGCAAUAUUACGAAAC, the “self-splicing fitness (ln)” value (30 °C) is -3.12 ± 0.2 and the “self-splicing fitness (ln)” value (37 °C) is -1.89 ± 0.27.

In the case of CCCCAGCAAUAUUACGACCU, the “self-splicing fitness (ln)” value runs as follows: (30 °C) -3.23 ± 0.15; (37 °C) -2.32 ± 0.23.

On to CCCCAGCAAUAUUACGAGGC, for which the “self-splicing fitness (ln)” value was -3.53 ± 0.26 (30 °C) and -3.1 ± 0.35 (37 °C).

For CCCCAGCAAUAUUACGAGUC, the “self-splicing fitness (ln)” value (30 °C) was -3.78 ± 0.14 and the “self-splicing fitness (ln)” value (37 °C) is -3.03 ± 0.17.

Regarding CCCCAGCAAUAUUACGCAAU, the “self-splicing fitness (ln)” value is -2.96 ± 0.12 (30 °C) and -1.34 ± 0.12 (37 °C).

Take CCCCAGCAAUAUUACGCAUC: the “self-splicing fitness (ln)” value was -3.84 ± 0.31 (30 °C) and -2.68 ± 0.3 (37 °C).

Take CCCCAGCAAUAUUACGCCAU: the “self-splicing fitness (ln)” value runs as follows: (30 °C) -2.14 ± 0.12; (37 °C) -2.32 ± 0.17.

Take CCCCAGCAAUAUUACGCCCU: the “self-splicing fitness (ln)” value was -4.24 ± 0.39 (30 °C) and -1.98 ± 0.28 (37 °C).

On to CCCCAGCAAUAUUACGCGUG, for which the “self-splicing fitness (ln)” value was -4.14 ± 0.18 (30 °C) and -2.76 ± 0.15 (37 °C).

For the sequence CCCCAGCAAUAUUACGCUAG, the “self-splicing fitness (ln)” value runs as follows: (30 °C) -3.68 ± 0.13; (37 °C) -2.86 ± 0.17.

Consider CCCCAGCAAUAUUACGGACC, for which the “self-splicing fitness (ln)” value is, setting by setting: (30 °C) -4.08 ± 0.35; (37 °C) -2.64 ± 0.26.

Consider CCCCAGCAAUAUUACGGAGA, for which the “self-splicing fitness (ln)” value (30 °C) was -2.32 ± 0.12 and the “self-splicing fitness (ln)” value (37 °C) was -1.61 ± 0.15.

For the sequence CCCCAGCAAUAUUACGGCCC, the “self-splicing fitness (ln)” value (37 °C) was -1.64 ± 0.47.

CCCCAGCAAUAUUACGGGCU: the “self-splicing fitness (ln)” value reads like this: (30 °C) -3.75 ± 0.17; (37 °C) -2.32 ± 0.17.

With CCCCAGCAAUAUUACGGGGG, the “self-splicing fitness (ln)” value (30 °C) was -4.74 ± 0.16 and the “self-splicing fitness (ln)” value (37 °C) is -2.67 ± 0.12.

For the sequence CCCCAGCAAUAUUACGGUGG, the “self-splicing fitness (ln)” value by setting is: (30 °C) -4.09 ± 0.2; (37 °C) -1.86 ± 0.11.

Turning to CCCCAGCAAUAUUACGGUUG, the “self-splicing fitness (ln)” value is, setting by setting: (30 °C) -2.4 ± 0.087; (37 °C) -1.5 ± 0.1.

Turning to CCCCAGCAAUAUUACGUAAC, the “self-splicing fitness (ln)” value runs as follows: (30 °C) -5 ± 0.27; (37 °C) -2.67 ± 0.18.

As to CCCCAGCAAUAUUACGUGUC, the “self-splicing fitness (ln)” value runs as follows: (30 °C) -4.78 ± 0.2; (37 °C) -2.53 ± 0.15.

Turning to CCCCAGCAAUAUUACGUGUG, the “self-splicing fitness (ln)” value by setting is: (30 °C) -2.66 ± 0.084; (37 °C) -2.5 ± 0.11.

For CCCGAGCAAUAUUACGAACG, the “self-splicing fitness (ln)” value (37 °C) is -1.84 ± 0.44.

For CCCGAGCAAUAUUACGAAGA, under “30 °C”, the “self-splicing fitness (ln)” value was -2.86 ± 0.31.
